Patent US20230212319A1, “NOVEL ANTIGEN BINDING DOMAINS AND SYNTHETIC ANTIGEN RECEPTORS INCORPORATING THE SAME” (University of Southern California, priority 2020, published 2023)

B1: 22194 (protein)
chain: MALPVTALLLPLALLLHAARPQLQLQESGPGLVKPSETLSLTCTVSGDSISSGDYYWGWIRQPPGKGLEWIGHIYYSGVTYYNPSLKSRVTISVDTSRNQFSLKLSSVTAADTAVYYCTREDSSNWRSRGQGTLVTVSSLEGQPKANPTVTLFPPSSEELQANKATLVCLISDFYPGAVTVAWKADGSPVKAGVETTKPSKQSNNKYAASSYLSLTPEQWKSHRSYSCQVTHEGSTVEKTVAPTECSPIKTDVITMDPKDNCSKDANDTLLLQLTNTSAYYMYLLLLLKSVVYFAIITCCLLRRTAFCCNGEKSRAKRSGSGATNFSLLKQAGDVEENPGPTSMDWIWRILFLVGAATGAHSFEYAKEMRNAYWEIALLPNLTNQQKRAPIRKLYDDPSQSSELLSEAKKLNDSQTRASTKGPSVFPLAPSSKSTSGGTAALGCLVKDYFPEPVTVSWNSGALTSGVHTFPAVLQSSGLYSLSSVVTVPSSSLGTQTYICNVNHKPSNTKVDKRVEPKSCEVKTDSTDHVKPKETENTKQPSKSCHKPKAIVHTEKVNMMSLTVLGLRMLFAKTVAVNFLLTAKLFFLRAKRSGSGVKQTLNFDLLKLAGDVESNPGPSRGHMTEYKPTVRLATRDDVPRAVRTLAAAFADYPATRHTVDPDRHIERVTELQELFLTRVGLDIGKVWVADDGAAVAVWTTPESVEAGAVFAEIGPRMAELSGSRLAAQQQMEGLLAPHRPKEPAWFLATVGVSPDHQGKGLGSAVVLPGVEAAERAGVPAFLETSAPRNLPFYERLGFTVTADVEVPEGPRTWCMTRKPGA
B2: 22219 (protein)
chain: MALPVTALLLPLALLLHAARPDIQMTQSPSSLSASVGDRVTITCKASDHINNWLAWYQQKPGQAPKLLIYGATTLETGVPSRFSGSGSGTDYTLTISSLQPEDFATYYCQQSWNTPWTFGQGTKLEIKRLEDLKNVFPPEVAVFEPSEAEISHTQKATLVCLATGFYPDHVELSWWVNGKEVHSGVCTDPQPLKEQPALNDSRYCLSSRLRVSATFWQNPRNHFRCQVQFYGLSENDEWTQDRAKPVTQIVSAEAWGRADCGFTSESYQQGVLSATILYEILLGKATLYAVLVSALVLMAMVKRKDSRGRAKRSGSGATNFSLLKQAGDVEENPGPTSATMDWIWRILFLVGAATGAHSGPSACPYSNPSLCSGSGGGGSGGGGSGGGGSFEQVQLQQPGAELVKPGASVKMSCKASGYAFSSYWINWMKQKPGQGLEWIGQIYPGDGDTNYNGKFKGRATLTADTSSSTAYMQLSSLTSEDSAVYFCARSITTVVGCAMDYWGQGTSVTVSSTRIQNPDPAVYQLRDSKSSDKSVCLFTDFDSQTNVSQSKDSDVYITDKCVLDMRSMDFKSNSAVAWSNKSDFACANAFNNSIIPEDTFFPSPESSCDVKLVEKSFETDTNLNFQNLSVIGFRILLLKVAGFNLLMTLRLWSSRAKRSGSGVKQTLNFDLLKLAGDVESNPGPSRGHMTEYKPTVRLATRDDVPRAVRTLAAAFADYPATRHTVDPDRHIERVTELQELFLTRVGLDIGKVWVADDGAAVAVWTTPESVEAGAVFAEIGPRMAELSGSRLAAQQQMEGLLAPHRPKEPAWFLATVGVSPDHQGKGLGSAVVLPGVEAAERAGVPAFLETSAPRNLPFYERLGFTVTADVEVPEGPRTWCMTRKPGA
B3: 22182 (protein)
chain: MALPVTALLLPLALLLHAARPACEVQLVESGGGVVQPGRSLRLSCAASGFSFSGYGMHWVRQAPGKGLEWVAYISYDGSNKYYADSVKGRFTISRDNSKNTLYLQMNSLRAEDTAVYYCAKDPAWGLRLGESSSYDFDYWGQGTMVTVSSGTGGGGSGGGGSGGGGSEFDIQMTQSPSSLSASVGDRVTITCKASDHINNWLAWYQQKPGQAPKLLIYGATTLETGVPSRFSGSGSGTDYTLTISSLQPEDFATYYCQQSWNTPWTFGQGTKLEIKRLEDLKNVFPPEVAVFEPSEAEISHTQKATLVCLATGFYPDHVELSWWVNGKEVHSGVCTDPQPLKEQPALNDSRYCLSSRLRVSATFWQNPRNHFRCQVQFYGLSENDEWTQDRAKPVTQIVSAEAWGRADCGFTSESYQQGVLSATILYEILLGKATLYAVLVSALVLMAMVKRKDSRGRAKRSGSGATNFSLLKQAGDVEENPGPTSMDWIWRILFLVGAATGAHSFEQVQLQQPGAELVKPGASVKMSCKASGYAFSSYWINWMKQKPGQGLEWIGQIYPGDGDTNYNGKFKGRATLTADTSSSTAYMQLSSLTSEDSAVYFCARSITTVVGCAMDYWGQGTSVTVSSTRIQNPDPAVYQLRDSKSSDKSVCLFTDFDSQTNVSQSKDSDVYITDKCVLDMRSMDFKSNSAVAWSNKSDFACANAFNNSIIPEDTFFPSPESSCDVKLVEKSFETDTNLNFQNLSVIGFRILLLKVAGFNLLMTLRLWSSRAKRSGSGVKQTLNFDLLKLAGDVESNPGPSRGHMTEYKPTVRLATRDDVPRAVRTLAAAFADYPATRHTVDPDRHIERVTELQELFLTRVGLDIGKVWVADDGAAVAVWTTPESVEAGAVFAEIGPRMAELSGSRLAAQQQMEGLLAPHRPKEPAWFLATVGVSPDHQGKGLGSAVVLPGVEAAERAGVPAFLETSAPRNLPFYERLGFTVTADVEVPEGPRTWCMTRKPGA
B4: 22218 (protein)
chain: MALPVTALLLPLALLLHAARPACQDKLTQWPKWLEGTGGGGSGGGGSGGGGSEFDIQMTQSPSSLSASVGDRVTITCKASDHINNWLAWYQQKPGQAPKLLIYGATTLETGVPSRFSGSGSGTDYTLTISSLQPEDFATYYCQQSWNTPWTFGQGTKLEIKRLEDLKNVFPPEVAVFEPSKAEIAHTQKATLVCLATGFYPDHVELSWWVNGKEVHSGVCTDPQPLKEQPALNDSRYCLSSRLRVSATFWQNPRNHFRCQVQFYGLSENDEWTQDRAKPVTQIVSAEAWGRADCGITSASYHQGVLSATILYEILLGKATLYAVLVSALVLMAMVKRKDSRGRAKRSGSGATNFSLLKQAGDVEENPGPTSATMDWIWRILFLVGAATGAHSGPQVQLQESGGGLAQAGGSLRLSCAASGRTFSMGWFRQAPGKEREFVAAITYSGGSPYYASSVRGRFTISRDNAKNTVYLQMNSLKPEDTAVYYCAANPTYGSDWNAENWGQGTQVTVSSGSGGGGSGGGGSGGGGSFEQVQLQQPGAELVKPGASVKMSCKASGYAFSSYWINWMKQKPGQGLEWIGQIYPGDGDTNYNGKFKGRATLTADTSSSTAYMQLSSLTSEDSAVYFCARSITTVVGCAMDYWGQGTSVTVSSTRIQNPDPAVYQLRDSKSSDKSVCLFTDFDSQTNVSQSKDSDVYITDKCVLDMRSMDFKSNSAVAWSNKSDFACANAFNNSIIPEDTFFPSSDVPCDVKLVEKSFETDTNLNFQNLSVIGFRILLLKVAGFNLLMTLRLWSSRAKRSGSGVKQTLNFDLLKLAGDVESNPGPSRGHMTEYKPTVRLATRDDVPRAVRTLAAAFADYPATRHTVDPDRHIERVTELQELFLTRVGLDIGKVWVADDGAAVAVWTTPESVEAGAVFAEIGPRMAELSGSRLAAQQQMEGLLAPHRPKEPAWFLATVGVSPDHQGKGLGSAVVLPGVEAAERAGVPAFLETSAPRNLPFYERLGFTVTADVEVPEGPRTWCMTRKPGA
B5: 22183 (protein)
chain: MALPVTALLLPLALLLHAARPACQVQLQESGAGLLKPSETLSLTCAVYGGSFSAYNWNWIRQPPGKGLEWIGEINHRGDTAYNPSLKSRVTISVDTSKNQFSLNLTSVTAADTAVYYCAARGYSYGWPPGYISDAFDIWGQGTQVTVSSGTGGGGSGGGGSGGGGSEFDIQMTQSPSSLSASVGDRVTITCKASDHINNWLAWYQQKPGQAPKLLIYGATTLETGVPSRFSGSGSGTDYTLTISSLQPEDFATYYCQQSWNTPWTFGQGTKLEIKRLEDLKNVFPPEVAVFEPSEAEISHTQKATLVCLATGFYPDHVELSWWVNGKEVHSGVCTDPQPLKEQPALNDSRYCLSSRLRVSATFWQNPRNHFRCQVQFYGLSENDEWTQDRAKPVTQIVSAEAWGRADCGFTSESYQQGVLSATILYEILLGKATLYAVLVSALVLMAMVKRKDSRGRAKRSGSGATNFSLLKQAGDVEENPGPTSMDWIWRILFLVGAATGAHSFEQVQLQQPGAELVKPGASVKMSCKASGYAFSSYWINWMKQKPGQGLEWIGQIYPGDGDTNYNGKFKGRATLTADTSSSTAYMQLSSLTSEDSAVYFCARSITTVVGCAMDYWGQGTSVTVSSTRIQNPDPAVYQLRDSKSSDKSVCLFTDFDSQTNVSQSKDSDVYITDKCVLDMRSMDFKSNSAVAWSNKSDFACANAFNNSIIPEDTFFPSPESSCDVKLVEKSFETDTNLNFQNLSVIGFRILLLKVAGFNLLMTLRLWSSRAKRSGSGVKQTLNFDLLKLAGDVESNPGPSRGHMTEYKPTVRLATRDDVPRAVRTLAAAFADYPATRHTVDPDRHIERVTELQELFLTRVGLDIGKVWVADDGAAVAVWTTPESVEAGAVFAEIGPRMAELSGSRLAAQQQMEGLLAPHRPKEPAWFLATVGVSPDHQGKGLGSAVVLPGVEAAERAGVPAFLETSAPRNLPFYERLGFTVTADVEVPEGPRTWCMTRKPGA
B6: 22155 (protein)
chain: MALPVTALLLPLALLLHAARPACEVQLLESGGGLIQPGGSLRLSCAASGFTFSSHAMTWVRQAPGKGLEWVSAISGSGDYTHYADSVKGRFTISRDNSKNTVYLQMNSLRAEDSAVYYCAKDEDGGSLLGHRGQGTLVTVSSGTGGGGSGGGGSGGGGSEFSYVLTQPPSVSVAPGQTARITCGGNNIGGKSVHWYQQPPGQAPVVVVYDDSDRPSGIPERFSGSNSGNTATLTISRVEAGDEAVYYCQVWDSSSDHVVFGGGTKLTVLLEADVSPKPTIFLPSIAETKLQKAGTYLCLLEKFFPDVIKIHWQEKKSNTILGSQEGNTMKTNDTYMKFSWLTVPEKSLDKEHRCIVRHENNKNGVDQEIIFPPIKTDVITMDPKDNCSKDANDTLLLQLTNTSAYYMYLLLLLKSVVYFAIITCCLLRRTAFCCNGEKSRAKRSGSGATNFSLLKQAGDVEENPGPTSMDWIWRILFLVGAATGAHSGPQVQLQESGGGLAQAGGSLRLSCAASGRTFSMGWFRQAPGKEREFVAAITYSGGSPYYASSVRGRFTISRDNAKNTVYLQMNSLKPEDTAVYYCAANPTYGSDWNAENWGQGTQVTVSSGSGGGGSGGGGSGGGGSFEQLQLQESGPGLVKPSETLSLTCTVSGGSISSSSYFWGWIRQPPGKGLEWIGSIYYSGITYYNPSLKSRVTISVDTSKNQFSLKLSSVTAADTAVYYCARHDGAVAGLFDYWGQGTLVTVSSATRPHTKPSVFVMKNGTNVACLVKEFYPKDIRINLVSSKKITEFDPAIVISPSGKYNAVKLGKYEDSNSVTCSVQHDNKTVHSTDFEVKTDSTDHVKPKETENTKQPSKSCHKPKAIVHTEKVNMMSLTVLGLRMLFAKTVAVNFLLTAKLFFLRAKRSGSGVKQTLNFDLLKLAGDVESNPGPSRGHMTEYKPTVRLATRDDVPRAVRTLAAAFADYPATRHTVDPDRHIERVTELQELFLTRVGLDIGKVWVADDGAAVAVWTTPESVEAGAVFAEIGPRMAELSGSRLAAQQQMEGLLAPHRPKEPAWFLATVGVSPDHQGKGLGSAVVLPGVEAAERAGVPAFLETSAPRNLPFYERLGFTVTADVEVPEGPRTWCMTRKPGA

Tested on: RAJI cells
Test: JNG assay, co-culture with RAJI cells
Format: cell-based
Conditions: JNG cells expressing construct, co-culture with Raji
Outline: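 Read-out is NFAT-driven GFP measured by flow cytometry after ~4–18 h co-culture of SAR-expressing JNG cells with target cells (E:T about 1:2). SARs were introduced by lentiviral spinfection and selected with puromycin or blasticidin when possible; scores (+/- to 5+ ≈ 5–50% GFP+) are relative to parental JNG cells.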

Molecule	NFAT-GFP ASSAY: Raji
B1	4+ (refer to approximately 5%, 10%, 20%, 30%, 40% and 50% GFP positive cells)
B2	Raji (+/-) (refer to approximately 5%, 10%, 20%, 30%, 40% and 50% GFP positive cells)
B3	5+ (refer to approximately 5%, 10%, 20%, 30%, 40% and 50% GFP positive cells)
B4	Raji (3+) (refer to approximately 5%, 10%, 20%, 30%, 40% and 50% GFP positive cells)
B5	5+ (refer to approximately 5%, 10%, 20%, 30%, 40% and 50% GFP positive cells)
B6	2+ (refer to approximately 5%, 10%, 20%, 30%, 40% and 50% GFP positive cells)
